Sequences and labels used below:
B4: Munc13–1(3–209) (domain or fragment, rat, UniProt Q62768 3-209, looked up)
chain: LLCVGVKKAKFDGAQEKFNTYVTLKVQNVKSTTIAVRGSQPSWEQDFMFEINRLDLGLTVEVWNKGLIWDTMVGTVWIPLRTIRQSNEEGPGEWLTLDSQAIMADSEICGTKDPTFHRILLDAHFELPLDIPEEEARYWAKKLEQLNAMRDQDEYSFQDQQDKPLPVPSSQCCNWNYFGWGEQNDDPDSAVDDRDSDYRSETSNSIP
notes: Munc13-1, rat, residues 3-209; Forms a homodimer (AUC); 15N-labelled for NMR; source: bacteria, GST fusion, purified (glutathione-Sepharose, GST cleaved, size-exclusion or ion-exchange chromatography)
B5: Munc13–1(3–150) (domain or fragment, rat, UniProt Q62768 3-150, looked up)
chain: LLCVGVKKAKFDGAQEKFNTYVTLKVQNVKSTTIAVRGSQPSWEQDFMFEINRLDLGLTVEVWNKGLIWDTMVGTVWIPLRTIRQSNEEGPGEWLTLDSQAIMADSEICGTKDPTFHRILLDAHFELPLDIPEEEARYWAKKLEQLNA
notes: Munc13-1, rat, residues 3-150 (C2A domain and C-terminal extension); Forms a homodimer (AUC); 15N-labelled for NMR; source: bacteria, GST fusion, purified (glutathione-Sepharose, GST cleaved, size-exclusion or ion-exchange chromatography)

For data set [1], the target named is RIM2α ZF domain (Rattus norvegicus) (UniProt Q9JIS1). Conditions: cited from earlier work.
For data set [2] the target is unchanged. The following applies: cited from earlier work. This is another data set of the same source.
The data set “Munc13–1(3–209)” addresses B4. The data set can be described thus: SEC; gel filtration on Superdex S75 or S200; 30 mM Tris-HCl, 150 mM NaCl, 1 mM TCEP, pH 7.4; isolated proteins and their mixtures (Figures 1B, 4A). Conditions: both partners purified. (Size exclusion chromatography separates by hydrodynamic size, large species first.)
The target of the data set “Munc13–1(3–150)” is B5. The description is as above. Conditions: both partners purified.
For data set [3], the target named is Munc13–1(3–150)(K32E) (rat) (UniProt Q62768). The data set can be described thus: ITC; 200 μM Rim2α(82-142) injected into 10-20 μM Munc13-1(3-150)(K32E) in the cell; 20 °C; 30 mM Tris pH 7.4, 150 mM NaCl, 1 mM TCEP; single-site model; apparent Kd. For orientation: Isothermal titration calorimetry measures the heat released or taken up as one component is titrated into another.

Data set [4] concerns the molecule itself. The data set can be described thus: AUC; sedimentation equilibrium at 20,000-35,000 rpm, 4 °C; 30 mM Tris pH 8.0, 150 mM NaCl, 1 mM TCEP; loading 12.46-13.65 μM; monomer/dimer equilibrium model, dimer to monomers; the paper notes that constants below 50-100 nM are not quite accurate.

Where two headings read alike, the source gives them in different places.

On to Munc13-1 3-209 (from UniProt Q62768), for which the Kd in data set [1] is 70 nM.
Consider Munc13-1 3-150 (from UniProt Q62768), for which, in data set [2], the Kd is 350 nM.

B1: RIM2α(82–142) (domain or fragment, rat, UniProt Q9JIS1-1 82-142, looked up)
chain: QQEQKGDAPTCGICHKTKFADGCGHNCSYCQTKFCARCGGRVSLRSNKVMWVCNLCRKQQE
notes: also called RIM2α ZF domain; RIM2α zinc-finger domain; source: bacteria, GST fusion, purified (glutathione-Sepharose, GST cleaved, size-exclusion or ion-exchange chromatography)
The stoichiometry N is a count of units in the complex or per binding partner. Take B1: in the data set with Munc13–1(3–209), the binding result is “binds”. Further, the binding result with Munc13–1(3–150) is on record as “binds”. In addition, in data set [3], the Kd turned out to be 100 nM and the stoichiometry N came to 1.

B2: Munc13–1(3–132) (domain or fragment, rat, UniProt Q62768 3-132, looked up)
chain: LLCVGVKKAKFDGAQEKFNTYVTLKVQNVKSTTIAVRGSQPSWEQDFMFEINRLDLGLTVEVWNKGLIWDTMVGTVWIPLRTIRQSNEEGPGEWLTLDSQAIMADSEICGTKDPTFHRILLDAHFELPLD
notes: Forms a homodimer (AUC); source: bacteria, GST fusion, purified (glutathione-Sepharose, GST cleaved, size-exclusion or ion-exchange chromatography)
Consider B2, for which, in data set [4], the Kd worked out at 80 nM and the “stoichiometry N” value was 2.

B3: Munc13–1(3–128) (domain or fragment, rat, UniProt Q62768 3-128, looked up)
chain: LLCVGVKKAKFDGAQEKFNTYVTLKVQNVKSTTIAVRGSQPSWEQDFMFEINRLDLGLTVEVWNKGLIWDTMVGTVWIPLRTIRQSNEEGPGEWLTLDSQAIMADSEICGTKDPTFHRILLDAHFE
notes: Cloned into a modified pGEX-KG vector with a TEV protease cleavage site; Forms a homodimer (AUC, crystal structure); 15N-labelled for NMR; also called Munc13–1 C2A domain; Munc13–1 C2A-domain homodimer; source: bacteria, GST fusion, purified (glutathione-Sepharose, GST cleaved, size-exclusion or ion-exchange chromatography)
As for B3, in data set [4], the Kd was found to be 310 nM and the “stoichiometry N” value came to 2.
The corresponding values for B4 are 1.9 nM and 2.
The corresponding values for B5 are 5.2 nM and 2.

The values above are taken from PMC1472246, “Structural Basis for a Munc13–1 Homodimer to Munc13–1/RIM Heterodimer Switch” (PLoS Biology, 2006).
